As a reminder, the stoichiometry N is a count of units in the complex or per binding partner.

In article PMC6382870 one finds stoichiometry N data, which are given here for five substances.

Assay [1] concerns the target PvNVPd (250-368) (Penaeus vannamei nodavirus (PvNV)). Briefly: SEC; P-domains without the SUMO-tag; column and buffer not stated. For orientation: SEC sorts molecules by how far they enter the pores of the column.
Assay [2] deals with PvNV capsid protein (1-368) (Penaeus vannamei nodavirus (PvNV)). Put plainly: cryo-EM structure; T = 1 PvNV-LP particles (~22-24 nm) picked from the same sample, icosahedral symmetry, 3.7 Å.
For assay [3] the target is unchanged. Briefly: cryo-EM structure; T = 3 PvNV-LP particles (~29-35 nm) picked from the assembled sample, 6 mg/mL, icosahedral symmetry, 3.5 Å.
Assay [4] deals with MrNVPd double-mutant Y293A/D295A (Macrobrachium rosenbergii nodavirus (MrNV)). Briefly: SEC; P-domains without the SUMO-tag; column and buffer not stated.
For assay [5], the target named is MrNVPd double-mutant K327A/D329A (Macrobrachium rosenbergii nodavirus (MrNV)). The assay is described as above.
For assay [6], the target named is MrNVPd (246-371) (Macrobrachium rosenbergii nodavirus (MrNV)). The assay is described as above.

As for PvNVPd (250-368) (domain or fragment), the stoichiometry N in assay [1] came out at 2.
“PvNV capsid protein (1-368) (natural protein)”: the stoichiometry N turned out to be 60 in assay [2] and 180 copies in assay [3].
As for “MrNVPd double-mutant Y293A/D295A (domain or fragment)”, in assay [4], the stoichiometry N turned out to be 2.
Consider “MrNVPd double-mutant K327A/D329A (domain or fragment)”, for which the stoichiometry N in assay [5] is 2.
Take MrNVPd (246-371) (domain or fragment): in assay [6], the stoichiometry N turned out to be 2.
